The EC50 (read off the curve) is the concentration at which the effect is half-maximal. Read a high EC50 (read off the curve) as a less potent agent.

Assay [1] addresses T1, Human PD-L1 (human, UniProt Q9NZQ7 19-127, limits assumed).
T1 construct: also called huPD-L1; hPD-L1
Description: ELISA on plate-coated human PD-L1, sample pre-incubated with MMP12 for 60 min. In general terms: An ELISA detects its analyte on a solid surface through an enzyme-linked reagent.

For assay [2], the target named is T1, Human PD-L1. Description: ELISA on plate-coated human PD-L1, sample pre-incubated with MMP12 for 15 min.
The target of assay [3] is T1, Human PD-L1. Description: ELISA on plate-coated human PD-L1, sample pre-incubated with MMP12 for 30 min.
In assay [4] the target is T1, Human PD-L1. In words: ELISA on plate-coated human PD-L1, sample pre-incubated with MMP12 for 5 min.

B1: LB213 after incubation with MMP12 (bispecific antibody)
heavy: not shown
light: not shown
chain: SCPPCPAPEAAGAPSVFLFPPKPKDTLMISRTPEVTCVVVDVSHEDPEVKFNWYVDGVEVHNAKTKPREEQYNSTYRVVSVLTVLHQDWLNGKEYKCKVSNKALPAPIEKTISKAKGQPREPQVCTLPPSRDELTKNQVSLSCAVKGFYPSDIAVEWESNGQPENNYKTTPPVLDSDGSFFLVSKLTVDKSRWQQGNVFSCSVMHEALHNHYTQKSLSLSPGK
notes: Digest of LB213 with human MMP12; a mixture of products; also called MMP12 treated LB213; digested LB213
On to B1, for which the 50% effective concentration (EC50 (read off the curve)) in the assay with Human PD-L1 [1] is roughly 0.5 nM; in the assay with Human PD-L1 [2], roughly 0.2 nM; in the assay with Human PD-L1 [3] it was roughly 0.3 nM; with Human PD-L1 [4], roughly 0.2 nM.
